Results from patent publication US20210060171A1 (DUKE UNIVERSITY, published 2021).
No end group written: not given here.

Experiments:
human serum albumin = target: T1, human serum albumin (human, UniProt P02768 25-609); experiment: isothermal titration calorimetry, HSA injected into ABD-Dox in PBS at 37 C, independent binding site model
T1 construct: also called HSA; HAS

mouse serum albumin = target: T2, mouse serum albumin (mouse, UniProt P07724 25-608); experiment: isothermal titration calorimetry, MSA injected into ABD-Dox in PBS at 37 C, independent binding site model
T2 construct: also called MSA
T2 sequence (P07724 25-608 limits assumed): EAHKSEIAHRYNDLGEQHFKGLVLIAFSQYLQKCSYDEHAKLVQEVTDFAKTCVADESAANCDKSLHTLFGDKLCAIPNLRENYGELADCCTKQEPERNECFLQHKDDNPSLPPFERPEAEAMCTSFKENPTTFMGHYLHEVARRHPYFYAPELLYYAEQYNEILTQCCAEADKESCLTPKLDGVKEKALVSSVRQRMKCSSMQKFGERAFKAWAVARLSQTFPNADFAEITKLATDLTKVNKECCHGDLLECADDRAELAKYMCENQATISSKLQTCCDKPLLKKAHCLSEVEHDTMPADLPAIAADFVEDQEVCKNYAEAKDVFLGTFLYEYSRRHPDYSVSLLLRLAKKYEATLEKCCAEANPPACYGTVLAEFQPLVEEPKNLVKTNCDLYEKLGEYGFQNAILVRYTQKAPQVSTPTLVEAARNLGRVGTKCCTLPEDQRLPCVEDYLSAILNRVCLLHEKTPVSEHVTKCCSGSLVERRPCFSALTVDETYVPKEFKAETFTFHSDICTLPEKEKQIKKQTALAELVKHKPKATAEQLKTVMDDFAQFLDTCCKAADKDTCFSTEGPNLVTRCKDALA

B1: ABD-Dox (ABD-(CGG)4-Dox with 1 and 2 conjugated Dox molecules) (peptide)
chain: GLAEAKVLANRELDKYGVSDYYKNLINNAKTVEGVKALIDEILAALPCGGCGGCGGCGG
modifications: also: 1-2 doxorubicin via EMCH (maleimide, hydrazone) on Cys of C-terminal (CGG)4
notes: Product of sortase A cleavage of KEKE-ELP160-srt-ABD-(CGG)4-Dox; also called AlBiPeD
In the case of B1, the Kd (human serum albumin) is reported as 125 nM, the ΔH (human serum albumin) is reported as -28.1 kJ/mol and the ΔS (human serum albumin) is reported as 41.5 Jmol^-1K^-1. The Kd (mouse serum albumin) was 73.8 nM, the ΔH (mouse serum albumin) was -18.6 kJ/mol and the ΔS (mouse serum albumin) was 76.6 Jmol^-1K^-1.
